# Measured values taken from PMC9772109.
# Molecular target: recombinant stabilized HA trimer of H1N1 virus A/Solomon Islands/3/2006 (H1 SI06) (influenza A virus A/Solomon Islands/3/2006 (H1N1))
# Experiment: cryo-EM structure
substance,measurement,value
recombinant stabilized HA trimer of H1N1 virus A/Solomon Islands/3/2006 (H1 SI06) (natural protein),stoichiometry N,3
